# Data reported in PMC5657617, “The GYF domain protein PSIG1 dampens the induction of cell death during plant-pathogen interactions” (PLoS Genetics, 2017).
# B1: HisMBP-SMG7 (natural protein, Arabidopsis thaliana, UniProt A9QM73 1-1059, looked up)
# chain: MMTLQMDKTTASSSWERAKSIYDEIAELANKRQKAGNPPDPNLLQLLREKYEAIILESHTFSEQHNIEIPLWQLHYKRIEYFRLHINRVLASSTSTAAQNVKGPSKAEQIAQLKLQFRTFLSEATGFYHDMILKIRSKYGLPLGSFSEDQQSQNLSDKDGKELAEVQKALKSCHRCLIYLGDLARYKGMYAEGDSRSRQYASASSYYLQAASLWPASGNPHHQLAIVASYSRDEFVTTYRYFRSLAVEYPFPTARDNLIVAFDKNRQSYEKLFVPSKDSSKRLTGKGRGKGADISLKDATLVAGPEKDKVTIANEMLKAFSIRFVHLNGILFTRTSLETFFDVLASTSSSLREVISLGSAKELTLGIDTSDSALFIVRVVTMLIFSVHNSKKETEGQSYAEIVQRVEPARNSLTASFELLGLVIEKCVQLGDPSSSYFLPGVLVFVEWLACCPDIALGSDPDDRQTAVRNSFWNQFVVFFNQVLSLGPTFIDDVEDETCFSNMSLYDERETENRLALWEDYELRGFLPLLPAQTILNFSRKHSFGTEGPKEKKARIKRIFAAGKALTSVIKVDQNHVYFDSKKKKFLVGVKPADDFLDSHSSPPKACNALQDNQVMIDHNSPIMQLDQQIYMGEEDDDDEVIVFKPLVTEKRKEASDQIYVPSGGFRKSDQVTTMGDFKALSGSDVAFHENQILQARGNASIQVPASVGANLLGPLQPSTQSQAMHMQQVQTQVQVPASVGANLLGLLLTSTQSQAMHMQQVQTQAVNPQPAQSLAASRLQPIQSQVAQPLPSRVVHFQQTQAQVSHVSPAHSQSTSFGGGSKWSPEEAASLASSLSGFAQLGNGHVMRNEMQGNHGVSYYPAHSLPVHQSYNGNGMGGMPYSQSRTPEAVFPPKIDPVLSSGVVADGLGVQSSLAKKNPISRAFRHLGPPPGFNSVPAKLQKEPAPGSELSGNNHLPVDDYSWLDGYQAQSSRGVGLNSSLNYATSGKPEHLGSTGNGLNGPANFPFPGKQVPTSQVQADFPYFQNPQKDNFVDKNHQSTQLPEQYQGQSTWSSRHFV
# notes: SMG7, Arabidopsis thaliana, At5g19400; open reading frame amplified from Arabidopsis seedling (Col-8) cDNA; residues 1-1059 by the limits of its two halves; also called AtSMG7; HisMBP-tagged SMG7; source: Escherichia coli Rosetta-gami 2 (DE3), purified (Dextrin-Sepharose)
# How the values were obtained:
# [1] = target: T1, GST-PSIG1 (PLANT SMY2-TYPE ILE-GYF DOMAIN-CONTAINING PROTEIN 1, full length) (Arabidopsis thaliana, UniProt Q9FMM3 1-1714); assay: pull-down; GST-PSIG1 proteins and HisMBP-SMG7 proteins mixed in 50 mM Tris-HCl pH 7.5, 150 mM NaCl, 1 mM DTT, 0.1% Triton X-100; Glutathione-Sepharose beads, 2 h at 4°C; washed three times with 300 mM NaCl buffer; detected by anti-His or anti-GST immunoblot or CBB; details: both partners purified
# T1 construct: PSIG1 (EXA1/MUSE11), Arabidopsis thaliana, At5g42950; whole ORF cloned into pGEX4T-3; the text calls it full-length PSIG1; Vector pGEX4T-3, cloned between SalI and NotI sites; also called GST-tagged PSIG1; EXA1; source: Escherichia coli Rosetta-gami 2 (DE3), purified (Glutathione-Sepharose)
# T1 sequence (Q9FMM3 whole entry, the tested form may be a part): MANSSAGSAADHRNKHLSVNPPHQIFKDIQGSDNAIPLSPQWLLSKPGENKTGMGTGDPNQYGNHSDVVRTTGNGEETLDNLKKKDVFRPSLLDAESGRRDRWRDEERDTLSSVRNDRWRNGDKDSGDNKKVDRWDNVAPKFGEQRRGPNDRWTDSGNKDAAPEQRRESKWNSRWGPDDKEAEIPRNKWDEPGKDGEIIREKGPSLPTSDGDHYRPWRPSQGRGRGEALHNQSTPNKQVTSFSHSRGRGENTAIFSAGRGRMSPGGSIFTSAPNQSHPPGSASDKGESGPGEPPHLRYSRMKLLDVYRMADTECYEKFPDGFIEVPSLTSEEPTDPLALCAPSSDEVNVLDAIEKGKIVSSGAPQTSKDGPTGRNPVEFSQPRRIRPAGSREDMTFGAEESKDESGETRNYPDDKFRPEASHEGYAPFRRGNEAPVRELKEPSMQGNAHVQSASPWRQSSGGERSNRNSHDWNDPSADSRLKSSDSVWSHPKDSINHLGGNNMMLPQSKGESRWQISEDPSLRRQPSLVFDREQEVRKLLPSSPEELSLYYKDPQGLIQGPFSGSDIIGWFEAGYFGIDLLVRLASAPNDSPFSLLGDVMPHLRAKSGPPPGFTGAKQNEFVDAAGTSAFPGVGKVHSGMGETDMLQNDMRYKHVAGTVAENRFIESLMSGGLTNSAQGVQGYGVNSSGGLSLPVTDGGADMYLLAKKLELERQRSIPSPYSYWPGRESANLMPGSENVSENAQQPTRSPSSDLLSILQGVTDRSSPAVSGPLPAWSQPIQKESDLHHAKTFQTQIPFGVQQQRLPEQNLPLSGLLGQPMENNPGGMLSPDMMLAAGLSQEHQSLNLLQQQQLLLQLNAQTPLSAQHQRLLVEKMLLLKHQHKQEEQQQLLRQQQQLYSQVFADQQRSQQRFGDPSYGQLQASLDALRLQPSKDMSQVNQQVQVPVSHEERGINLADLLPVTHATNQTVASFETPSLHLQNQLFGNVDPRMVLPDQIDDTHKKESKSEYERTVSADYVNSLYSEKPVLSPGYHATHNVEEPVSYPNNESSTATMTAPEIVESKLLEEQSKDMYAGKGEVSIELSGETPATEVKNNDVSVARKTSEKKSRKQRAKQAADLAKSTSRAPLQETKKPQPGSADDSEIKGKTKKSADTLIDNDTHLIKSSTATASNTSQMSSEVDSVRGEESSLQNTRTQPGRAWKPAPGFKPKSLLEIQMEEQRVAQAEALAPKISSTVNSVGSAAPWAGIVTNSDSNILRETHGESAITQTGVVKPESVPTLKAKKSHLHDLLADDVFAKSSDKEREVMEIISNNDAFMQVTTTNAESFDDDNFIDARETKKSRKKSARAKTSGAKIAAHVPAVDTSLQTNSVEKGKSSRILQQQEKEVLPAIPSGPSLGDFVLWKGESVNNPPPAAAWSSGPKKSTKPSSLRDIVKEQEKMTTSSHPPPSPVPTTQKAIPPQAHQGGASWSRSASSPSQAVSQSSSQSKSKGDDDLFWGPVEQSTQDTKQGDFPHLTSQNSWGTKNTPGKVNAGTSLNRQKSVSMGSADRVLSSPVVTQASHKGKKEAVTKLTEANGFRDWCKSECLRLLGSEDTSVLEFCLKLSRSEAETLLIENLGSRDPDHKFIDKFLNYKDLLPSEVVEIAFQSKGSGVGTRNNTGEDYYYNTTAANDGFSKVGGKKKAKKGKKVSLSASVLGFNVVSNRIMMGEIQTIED
# HisMBP-SMG7 = target: B1; assay: as above; details: both partners purified
Binder,binding result [1],binding result (HisMBP-SMG7)
"HisMBP-SMG7-C (domain or fragment, Arabidopsis thaliana, UniProt A9QM73 549-1059, looked up, also called AtSMG7-C (549-1059); C-terminal half of SMG7; source: Escherichia coli Rosetta-gami 2 (DE3), purified (Dextrin-Sepharose)) PKEKKARIKRIFAAGKALTSVIKVDQNHVYFDSKKKKFLVGVKPADDFLDSHSSPPKACNALQDNQVMIDHNSPIMQLDQQIYMGEEDDDDEVIVFKPLVTEKRKEASDQIYVPSGGFRKSDQVTTMGDFKALSGSDVAFHENQILQARGNASIQVPASVGANLLGPLQPSTQSQAMHMQQVQTQVQVPASVGANLLGLLLTSTQSQAMHMQQVQTQAVNPQPAQSLAASRLQPIQSQVAQPLPSRVVHFQQTQAQVSHVSPAHSQSTSFGGGSKWSPEEAASLASSLSGFAQLGNGHVMRNEMQGNHGVSYYPAHSLPVHQSYNGNGMGGMPYSQSRTPEAVFPPKIDPVLSSGVVADGLGVQSSLAKKNPISRAFRHLGPPPGFNSVPAKLQKEPAPGSELSGNNHLPVDDYSWLDGYQAQSSRGVGLNSSLNYATSGKPEHLGSTGNGLNGPANFPFPGKQVPTSQVQADFPYFQNPQKDNFVDKNHQSTQLPEQYQGQSTWSSRHFV",binds,–
B1,binds,–
"GST-PSIG1^1-606 (domain or fragment, PSIG1, Arabidopsis thaliana, At5g42950, residues 1-606, with the GYF domain and without its own PPGF motif; Vector pGEX4T-3; source: Escherichia coli Rosetta-gami 2 (DE3), purified (Glutathione-Sepharose)) not shown",–,binds
